Experimental findings from patent publication US20170313754A1 (PROTAGONIST THERAPEUTICS, published 2017) are described below.

Numbered stars: 1 amine (or outer) side, 2 acyl side, 3 side chain; on linkers, the order of the positions; unused ones are H or OH. Square brackets hold non-standard residues; d marks the D form. Ends that are not written are not given here. * marks the point of attachment. Ida = iminodiacetic acid, O=C(CN(CC(=O)[*:3])[*:1])[*:2]; β3hP = O=C(O)C[C@@H]1CCCN1; Isovaleryl = CC(C)CC(=O)*

The target of the assay is T1, human ferroportin (SLC40A1) fused in frame with GFP, stably expressed in HEK293 cells (human, UniProt Q9NP59 1-571).
T1 sequence (looked up): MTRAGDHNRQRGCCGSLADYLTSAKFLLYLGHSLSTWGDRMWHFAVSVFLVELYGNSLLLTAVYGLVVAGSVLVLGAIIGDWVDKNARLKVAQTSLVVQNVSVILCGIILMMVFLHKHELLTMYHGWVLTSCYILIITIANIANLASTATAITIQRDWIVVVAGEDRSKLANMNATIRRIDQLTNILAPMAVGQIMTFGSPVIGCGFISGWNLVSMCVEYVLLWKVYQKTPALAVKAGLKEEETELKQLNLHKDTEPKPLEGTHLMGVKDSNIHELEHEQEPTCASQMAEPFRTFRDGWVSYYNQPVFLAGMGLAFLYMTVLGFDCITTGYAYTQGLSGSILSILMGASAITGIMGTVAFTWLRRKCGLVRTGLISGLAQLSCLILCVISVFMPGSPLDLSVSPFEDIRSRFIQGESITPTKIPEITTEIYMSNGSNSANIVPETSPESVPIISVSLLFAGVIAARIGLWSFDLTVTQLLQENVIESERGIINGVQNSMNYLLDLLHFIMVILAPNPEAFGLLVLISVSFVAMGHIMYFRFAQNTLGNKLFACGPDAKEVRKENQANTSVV
Briefly: cell-based or functional assay.

Regarding H-DTHFPCIEF-NH2 [Hy-DTHFPCIEF-NH2, listing 1 of 2 here], the “Potency EC50 (nM), ferroportin-GFP internalization/degradation” value was more than 1000 nM.

B1: Isovaleric acid-DTHFPCIIF-NH2 (peptide)
peptide: Isovaleryl-DTHFPCIIF-NH2
SMILES: CC[C@H](C)[C@H](NC(=O)[C@H](CS)NC(=O)[C@@H]1CCCN1C(=O)[C@H](Cc1ccccc1)NC(=O)[C@H](Cc1c[nH]cn1)NC(=O)[C@@H](NC(=O)[C@H](CC(=O)O)NC(=O)CC(C)C)[C@@H](C)O)C(=O)N[C@H](C(=O)N[C@@H](Cc1ccccc1)C(N)=O)[C@@H](C)CC
Regarding B1, the “Potency EC50 (nM), ferroportin-GFP internalization/degradation” value amounted to 16 nM.

Regarding H-DTHFACIIF-NH2 [Hy-DTHFACIIF-NH2], the “Potency EC50 (nM), ferroportin-GFP internalization/degradation” value is more than 1000 nM.

As for H-DTHICIAIF-NH2 [Hy-DTHICIAIF-NH2], the “Potency EC50 (nM), ferroportin-GFP internalization/degradation” value is more than 10000 nM.

As for H-DTHFPIICI-NH2 [Hy-DTHFPIICI-NH2], the “Potency EC50 (nM), ferroportin-GFP internalization/degradation” value is more than 10000 nM.

Turning to [Ida]THF[β3hP]CIIF-NH2 [[Ida]-THF-[bhPro]-CIIF-NH2], the “Potency EC50 (nM), ferroportin-GFP internalization/degradation” value is more than 1000 nM.

Turning to H-DTHFPCIEF-NH2 [Hy-DTHFPCIEF-NH2, listing 2 of 2 here], the “Potency EC50 (nM), ferroportin-GFP internalization/degradation” value was more than 1000 nM.

For H-DTAFPCIIF-NH2 [Hy-DTAFPCIIF-NH2], the “Potency EC50 (nM), ferroportin-GFP internalization/degradation” value was found to be 739 nM.

On to H-DTHCPIAIF-NH2 [Hy-DTHCPIAIF-NH2], for which the “Potency EC50 (nM), ferroportin-GFP internalization/degradation” value was more than 10000 nM.

In the case of H-ATHFPCIIF-NH2 [Hy-ATHFPCIIF-NH2], the “Potency EC50 (nM), ferroportin-GFP internalization/degradation” value is more than 1000 nM.

B2: Hy-DTHF-(D)-Ala-CIIF-NH2 (peptide)
peptide: H-DTHF[dA]CIIF-NH2
SMILES: CC[C@H](C)[C@H](NC(=O)[C@H](CS)NC(=O)[C@@H](C)NC(=O)[C@H](Cc1ccccc1)NC(=O)[C@H](Cc1c[nH]cn1)NC(=O)[C@@H](NC(=O)[C@@H](N)CC(=O)O)[C@@H](C)O)C(=O)N[C@H](C(=O)N[C@@H](Cc1ccccc1)C(N)=O)[C@@H](C)CC
Turning to B2, the “Potency EC50 (nM), ferroportin-GFP internalization/degradation” value was more than 10000 nM.

In the case of H-DTHFPCAIF-NH2 [Hy-DTHFPCAIF-NH2], the “Potency EC50 (nM), ferroportin-GFP internalization/degradation” value was more than 1000 nM.

With H-DTHFPCIIA-NH2 [Hy-DTHFPCIIA-NH2], the “Potency EC50 (nM), ferroportin-GFP internalization/degradation” value is more than 1000 nM.

B3: Isovaleric acid-DTHFPCIKF-NH2 (peptide)
peptide: Isovaleryl-DTHFPCIKF-NH2
SMILES: CC[C@H](C)[C@H](NC(=O)[C@H](CS)NC(=O)[C@@H]1CCCN1C(=O)[C@H](Cc1ccccc1)NC(=O)[C@H](Cc1c[nH]cn1)NC(=O)[C@@H](NC(=O)[C@H](CC(=O)O)NC(=O)CC(C)C)[C@@H](C)O)C(=O)N[C@@H](CCCCN)C(=O)N[C@@H](Cc1ccccc1)C(N)=O
Consider B3, for which the “Potency EC50 (nM), ferroportin-GFP internalization/degradation” value was found to be 7 nM.

In the case of H-DTHFPCIF-NH2 [Hy-DTHFPCIF-NH2], the “Potency: percent at the stated concentration, ferroportin-GFP internalization/degradation” value was determined as 52 % at 1 µM.

H-DTHAPCIIF-NH2 [Hy-DTHAPCIIF-NH2]: the “Potency EC50 (nM), ferroportin-GFP internalization/degradation” value is more than 10000 nM.

Consider H-DTHFPIAICI-NH2 [Hy-DTHFPIAICI-NH2], for which the “Potency EC50 (nM), ferroportin-GFP internalization/degradation” value was more than 10000 nM.
